{"source": "patent US20020127227A1", "about": "(GlaxoSmithKline, published 2002)", "target": "T1, recombinant human RHAMM (receptor for hyaluronic acid mediated motility), GST tag removed (human, UniProt O75330-3 1-725, limits assumed)", "T1 construct": "Any residues left by the linker after thrombin cleavage are not described; The BIAcore text says only 'RHAMM' and 'soluble monomeric RHAMM'; also called soluble monomeric RHAMM", "T1 sequence (looked up)": "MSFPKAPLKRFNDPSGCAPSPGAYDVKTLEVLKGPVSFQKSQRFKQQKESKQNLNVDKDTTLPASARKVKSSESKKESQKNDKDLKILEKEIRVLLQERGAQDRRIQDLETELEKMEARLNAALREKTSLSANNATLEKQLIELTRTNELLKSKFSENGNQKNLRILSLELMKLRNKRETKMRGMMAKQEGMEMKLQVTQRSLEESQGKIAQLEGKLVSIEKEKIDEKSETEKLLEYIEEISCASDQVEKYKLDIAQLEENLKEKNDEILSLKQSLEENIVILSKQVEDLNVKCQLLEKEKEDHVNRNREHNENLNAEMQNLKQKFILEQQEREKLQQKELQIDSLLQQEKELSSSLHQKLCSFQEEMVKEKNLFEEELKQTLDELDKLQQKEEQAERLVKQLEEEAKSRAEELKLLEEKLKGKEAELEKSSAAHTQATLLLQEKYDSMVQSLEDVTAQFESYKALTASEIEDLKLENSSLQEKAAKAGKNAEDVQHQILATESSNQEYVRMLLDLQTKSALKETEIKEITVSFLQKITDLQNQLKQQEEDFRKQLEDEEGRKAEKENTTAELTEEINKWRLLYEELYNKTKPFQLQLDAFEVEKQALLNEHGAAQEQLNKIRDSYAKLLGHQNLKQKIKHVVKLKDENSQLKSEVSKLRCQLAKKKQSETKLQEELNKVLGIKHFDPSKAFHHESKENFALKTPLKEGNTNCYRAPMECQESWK", "assay": "BIAcore SPR, mAb captured on rabbit anti-mouse IgG Fc, RHAMM injected", "description": "The affinity of the purified mAbs was measured in the BIAcore. Using a flow rate of 10 ul/min, the mAb (diluted in HBS buffer) was injected over a rabbit anti-mouse IgG Fc surface, followed by buffer flow and the RU recorded. RHAMM diluted in HBS buffer was then injected for 180s followed by buffer flow for 150s and regeneration of the sensor chip surface with an injection of 0.1 M phosphoric acid. BIAcore software was used for association and dissociation-phase analysis. The murine monoclonal antibodies bound to soluble monomeric RHAMM. The on-rates (kₐₛₛ) and off-rates (kdiss) were calculated.", "data": [{"binder": "murine monoclonal antibody 16E10 (antibody, V domains shown, N-terminus of the heavy chain blocked with pyroglutamic acid, The rest is mouse IgG with a kappa light chain (amplified with mouse IgG CH1 and C kappa primers); also called mAb 16E10; ATCC 16E10) VH: QVQLKESGPGLVAPSQSLSITCTVSGFSLTGYGVNWVRQPPGKGLEWLGMIWVDGGTDYNSALKSRLSISKDNSKSQVFLKMNSLQTDDTARYYCARGGSSLLGFAYWGQGTLVTVSA VL: DIQMTQTTSSLSASLGDRVTISCRASQDISNYLNWYQQKPDGTVKLLIYYTSRLHSGVPSRFSGSGSGTDYSLTISNLEQEDIATYFCQQGNTLPRTFGGGTKLEIKR", "values": [{"measurement": "Kd", "result": 0.47, "unit": "nM"}]}]}
